# Patent US9701748B2, “Humanized anti-CD22 antibody” (IMMUNOMEDICS, INC., priority 2014, dated 2017)
# Entries after “also recorded” stand apart in the source; their conditions may differ. Read-outs that look alike come from different tables or passages of the source.
# B1: hRFB4: humanized anti-CD22 antibody with variable region sequences SEQ ID NO:7 and SEQ ID NO:8 (antibody, V domains shown)
# VH: QVQLVQSGAEVKKPGSSVKVSCKASGFTFSIYDMSWVRQAPGQGLEWVAYISSGGGTTYYPDTVKGRFTITADESTNTAYMELSSLRSEDTAFYFCARHSGYGSSYGVLFAYWGQGTLVTVSS
# VL: DIQLTQSPSSLSASVGDRVTISCRASQDISNYLNWYQQKPGKAPKLLIYYTSILHSGVPSRFSGSGSGTDYTFTISSLQPEDIATYYCQQGNTLPWTFGGGTKVQIKR
# Legend:
# [1] = system: RII isoform of PKA compared with the RI isoform; settings: 2006, cited from earlier work; for isoform preference of peptide antagonists: Stokka et al.
# [2] = target: DDD of the RII form of PKA (Homo sapiens, UniProt P13861); settings: Hundsrucker et al., 2006, cited from earlier work
# Sequence of DDD of the RII form of PKA (P13861 whole entry): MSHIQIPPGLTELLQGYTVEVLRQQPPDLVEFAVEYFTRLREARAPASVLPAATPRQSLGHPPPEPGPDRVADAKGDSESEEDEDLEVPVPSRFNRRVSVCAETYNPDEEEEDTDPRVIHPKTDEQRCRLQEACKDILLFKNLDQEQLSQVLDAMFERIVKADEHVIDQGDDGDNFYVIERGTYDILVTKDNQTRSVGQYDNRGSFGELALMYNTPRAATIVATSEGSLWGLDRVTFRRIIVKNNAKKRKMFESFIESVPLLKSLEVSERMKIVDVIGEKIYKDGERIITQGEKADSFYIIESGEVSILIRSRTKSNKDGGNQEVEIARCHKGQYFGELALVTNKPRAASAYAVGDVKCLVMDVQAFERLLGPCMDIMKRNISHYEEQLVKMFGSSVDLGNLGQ
# [3] = system: subcutaneous Ramos Burkitt lymphoma tumors; test: Therapeutic efficacy in mice bearing a human Burkitt lymphoma xenograft (Ramos); format: in vivo, NCr athymic nu/nu mice
# Protocol: A humanized anti-human CD22 monoclonal antibody, hRFB4, was conjugated with SN-38 as described in U.S. Pat. Nos. 7,999,083 and 8,080,250 (the Examples section of each of which is incorporated herein by reference) at a drug to antibody ratio of 5.71. This antibody drug conjugate (ADC) was tested in mice bearing subcutaneous (s.c.) Ramos Burkitt lymphoma tumors. Efficacy was compared to another anti-CD22 SN-38-ADC, hLL2-SN-38.
# To perform this study, 5 week-old female NCr athymic nu/nu mice were injected s.c. with Ramos cells that were harvested from tissue culture (1×10^7 cells per mouse). Once tumors reach approximately 0.2 cm^3 in size, they were divided up into treatment groups. Mice received 250 μg hRFB4-SN-38 i.p. twice weekly for two weeks. Likewise, mice received hLL2-SN-38 or a non-tumor targeting anti-CEACAM5 SN-38-ADC (hMN14-SN-38) at the same dose/schedule as the hRFB4-SN-38. Saline control mice received 100 μL i.p. injections twice weekly for two weeks. Tumors were measured and mice weighed twice weekly. Animals were euthanized for disease progression if their tumor volumes exceeded 1.0 cm^3 in size.
# [4] = system: B cells gated from PBMCs of healthy donors; test: Trogocytosis: surface antigen levels on B cells after overnight treatment of PBMCs, flow cytometry; format: cell-based, human
# Protocol: Peripheral blood mononuclear cells (PBMCs) obtained from healthy donors were incubated overnight (16-24 h) with 10 μg/mL of either epratuzumab or an isotype control mAb (hMN-14) and the relative levels of various antigens on the surface of the B cells were analyzed by flow cytometry. PBMCs from heparinized whole blood of normal donors were isolated by density gradient centrifugation on UNI-SEP tubes (Novamed Ltd, Israel). PBMCs were reconstituted in RPMI media supplemented with 10% heat inactivated fetal bovine serum and plated at a cell density of 1.5×10^6/mL in non-tissue culture treated 48-well plates. […] Stained cells were analyzed by flow cytometry on a FACSCALIBUR® (BD Biosciences) using Flowjo (V7.6.5) software. Initially, the lymphocyte population was gated by side vs. forward scattering, and B cells were further gated from this population with the CD19 signal. The mean fluorescence intensity (MFI), obtained with fluorochrome-conjugated antibodies to various cell surface antigens, on the gated B cells was calculated following treatment with epratuzumab, hMN-14 or without antibody. PBMCs from 16 healthy donors were assessed in various experiments.
# [5] = system: patients with primary Sjögren's syndrome; format: in vivo, human
# Protocol: Patients with primary Sjögren's syndrome receive 8 doses of 20, 40, 80 or 160 mg hRFB4 injected s.c. every week or every two weeks.
# [6] = system: patients with SLE who have failed at least one previous therapy; test: Combination therapy of SLE with hRFB4 and hLL2; format: in vivo, human; settings: single antibody alone, same dosage and schedule
# Protocol: Patients with SLE who have failed at least one previous therapy receive combination therapy with 160 mg each of hRFB4 and hLL2 (epratuzumab), administered s.c. in 2 injections weekly for four weeks. Control groups receive hRFB4 alone, hLL2 alone or irrelevant antibody (hMN-14) at the same dosage and schedule. […] All serum samples evaluated for anti-human antibodies (HAHA) are negative.
# [7] = system: rheumatoid arthritis patients who have failed at least one TNFα inhibitor; format: in vivo, human
# Protocol: Patients who have failed therapy with at least one TNFα inhibitor receive 4 doses of 40, 80, 160 or 320 mg hRFB4 injected s.c. every week or every two weeks. The antibody is either administered alone or in conjunction with oral methotrexate (10-25 mg/week).
# [8] = system: patients with previously untreated or relapsed hairy cell leukemia; format: in vivo, human
# Protocol: Patients with previously untreated or relapsed hairy cell leukemia receive 4 doses of 40, 80, 160 or 320 mg hRFB4 injected s.c. every week or every two weeks.
# Daudi cells = test: Dose-response of trogocytosis of CD22 and CD19 from Daudi cells (FIG. 6A, 6B); format: cell-based, human
# CD22 = target: T1, CD22 (Homo sapiens, UniProt P20273); test: Binding affinity for CD22+ Daudi cells determined by ELISA (FIG. 2)
# T1 construct: endogenous in cells; host or cells: Daudi (Burkitt lymphoma) cells
# Protocol: FIG. 2. Comparative binding affinity for CD22+ Daudi cells of hLL2 IgG, hRFB4 IgG, chimeric RFB4 conjugated to AD2 peptide, and hMN-14 IgG, as determined by ELISA. The binding affinity of hRFB4 as determined for Daudi cells is about 10-fold higher than that of hLL2 and about 30% higher than the chimeric RFB4.
# The hRFB4 antibody was prepared as described above, resulting in a humanized anti-CD22 antibody with variable region sequences as shown in FIG. 1A and FIG. 1B (SEQ ID NO:7 and SEQ ID NO:8). After expression, the binding affinity or CD22+ Daudi cells was compared to that of the hLL2 antibody, comprising the same FR and constant region sequences but different CDR sequences, and to the chimeric RFB4 antibody, comprising the same CDR sequences but different FR and constant region sequences.
# [9] = system: patients with moderately active SLE; test: Open-label study of hRFB4 in systemic lupus erythematosus; format: in vivo, human
# Protocol: An open-label, single-center study of patients with moderately active SLE (total British Isles Lupus Assessment Group (BILAG) score 6 to 12) is conducted. Patients receive dosages of hRFB4 of 50, 100, 200, and 400 mg subcutaneously (SC) every week for 6 weeks. Evaluations include safety, SLE activity (BILAG), blood levels of B and T cells, human anti-RFB4 antibody (HAHA) titers, and levels of cell surface CD19, CD20, CD21, CD22 and CD79b on B cells. It is determined that a dosage of 50-100 mg per SC injection results in optimal depletion of B cell CD19, while producing less than 50% depletion of normal B cells. Subsequently, a subcutaneous dose of 100 mg hRFB4 is administered to a new group of patients with moderately active SLE.
molecule,measurement,setting,value
DLIEEAASRIVDAVIEQVKAAGAY [Ht-31],isoform preference of peptide antagonists,[1],greater affinity for the RII isoform of PKA
FEELAWKIAKMIWSDVFQQC [PV-38],isoform preference of peptide antagonists,[1],higher affinity for RI
LEQYANQLADQIIKEATE [RIAD],isoform preference of peptide antagonists,[1],higher affinity for RI
PEDAELVRLSKRDVENAVLKAVQQY [AKAP7δ-L308D-pep],affinity for the RII DDD sequence,[2],particularly high affinities
PEDAELVRLSKRLVENAVLKAVQQY [AKAP7δ-wt-pep],affinity for the RII DDD sequence,[2],particularly high affinities
PEDAELVRTSKRLVENAVLKAVQQY [AKAP7δ-L304T-pep],affinity for the RII DDD sequence,[2],particularly high affinities
QIEYLAKQIVDNAIQQA [AKAP-IS],Kd,"[2]; Alto et al., 2003, read-out: binding constant for DDD",400 pM
same,affinity for the RII DDD sequence,[2],particularly high affinities
QIEYVAKQIVDYAIHQA [SuperAKAP-IS],selectivity for the RII isoform of PKA compared with the RI isoform,[1]; Gold et al.,five order of magnitude higher selectivity
hLL2-SN-38,survival compared with hMN14-SN-38 control group,[3]; 250 μg i.p. twice weekly for two weeks,no significant difference
same,mice tumor free when the study ended,"[3]; day 87, 250 μg i.p. twice weekly for two weeks",1 of 6
same,survival compared with saline control,"[3]; log-rank test, P=0.0012",significantly better than saline control
hMN14-SN-38: non-tumor targeting anti-CEACAM5 SN-38-ADC,median survival time (MST),"[3]; 250 μg i.p. twice weekly for two weeks, days post-therapy initiation, death = tumor exceeding 1.0 cm^3",5 days
hMN-14: anti-CEACAM5 antibody used as isotype control [reference compound],effect on levels of the tested surface proteins,"[4]; isotype control mAb, 10 μg/mL, overnight",did not affect the levels of any of the tested proteins
B1,median corticosteroid after treatment,"[5]; 80 mg group, six months after treatment, decrease from 17.5 mg/day",8.3 mg/day
same,B-cell depletion,[5]; all dosage levels,Transient B-cell depletion
same,human anti-hRFB4 antibody (HAHA) in serum samples,[5]; in vivo,negative
same,objective responses,"[5]; s.c., all dose levels",observed at all dose levels
same,objective responses,[6],Objective responses are observed
same,"trogocytosis (MFI of CD22, CD19, CD21, CD79b on B cells) compared with hLL2","[4]; overnight treatment of PBMCs, FIG. 4A-4D",more efficacious than the hLL2 antibody; also recorded: as capable of mediating trogocytosis as hLL2
same,"depletion of B cell surface levels of CD19, CD20, CD21, CD22 and CD79b",[7]; 80 mg,moderate level
same,"depletion of B cell surface levels of CD19, CD20, CD21, CD22 and CD79b",[7]; 160 mg,much higher level
same,B-cell depletion,[7]; all dosage levels,Transient B-cell depletion
same,human anti-hRFB4 antibody (HAHA) in serum samples,[7]; in vivo,negative
same,release pattern of s.c. antibody,"[7]; in vivo, sc",slow release pattern over several days
same,objective responses,"[7]; s.c., all dose levels",observed at all dose levels
same,optimum dosage,[7]; six months after treatment,160 mg
same,"depletion of B cell surface levels of CD19, CD20, CD21, CD22 and CD79b",[8]; 40 mg,moderate level
same,"depletion of B cell surface levels of CD19, CD20, CD21, CD22 and CD79b",[8]; 80 mg,much higher level
same,B-cell depletion,[8]; all dosage levels,Transient B-cell depletion
same,objective responses (mostly partial responses),[8]; dose of 80 mg,30%
same,human anti-hRFB4 antibody (HAHA) in serum samples,[8]; in vivo,negative
same,release pattern of s.c. antibody,"[8]; in vivo, sc",slow release pattern over several days
same,optimum dosage,[8]; six months after treatment,80 mg
same,minimal concentration to induce the maximal level of trogocytosis of CD19,"Daudi cells; CD19 from Daudi cell, FIG. 6B",1 ng/mL
same,minimal concentration to induce the maximal level of trogocytosis of CD22,"Daudi cells; CD22 from Daudi cell, FIG. 6A",1 ng/mL
same,concentration inducing the maximal level of trogocytosis of CD19 and CD22,"Daudi cells; dose-response curve, FIG. 6A and 6B",1 ng/mL
same,Kd,"CD22; CD22+ Daudi cells, FIG. 2",200 pM
same,"binding affinity, higher than the chimeric RFB4","CD22; Daudi cells, versus chimeric RFB4 conjugated to AD2 peptide",about 30%
same,patients with BILAG decreases continuing to at least 18 weeks,[9]; 100 mg SC,92%
same,decrease of total BILAG scores,"[9]; 100 mg SC, all patients",at least 50%
same,depletion of normal B cells,"[9]; 50-100 mg per SC injection, weekly for 6 weeks",less than 50%
same,immunogenicity,[9]; SLE patients,no evidence of immunogenicity
same,tolerability,[9]; SLE patients,well tolerated
same,patients with improvement in at least one BILAG B- or C-level disease activity,"[9]; at 6, 10 and 18 weeks",93%
same,average decrease of B-cell levels,[9]; at 18 weeks,35%
same,patients with multiple BILAG B involvement at baseline who completely resolved all B-level disease activities,[9]; by 18 weeks,3 patients
